Measurements: patent US6627193

Molecular target: purified human protein C (PC), P04070
Sequence (P04070 whole entry, looked up): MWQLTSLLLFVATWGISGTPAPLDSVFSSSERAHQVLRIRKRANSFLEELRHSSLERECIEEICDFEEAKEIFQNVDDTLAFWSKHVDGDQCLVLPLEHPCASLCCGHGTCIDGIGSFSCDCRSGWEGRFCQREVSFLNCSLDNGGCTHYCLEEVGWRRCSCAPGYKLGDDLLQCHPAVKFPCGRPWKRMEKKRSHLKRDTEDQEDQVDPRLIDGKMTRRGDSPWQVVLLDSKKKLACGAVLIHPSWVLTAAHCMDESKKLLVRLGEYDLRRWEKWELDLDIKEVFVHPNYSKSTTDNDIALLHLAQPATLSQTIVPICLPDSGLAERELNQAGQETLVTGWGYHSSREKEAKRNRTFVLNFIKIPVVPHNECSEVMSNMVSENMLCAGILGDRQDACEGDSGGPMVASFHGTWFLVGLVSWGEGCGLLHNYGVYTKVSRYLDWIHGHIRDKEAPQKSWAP

Protein	APC activity generated from purified PC	APC activity generated from purified PC (amidolytic assay with Boc-Leu-Ser-Thr-Arg-MCA)	APC activity generated in human plasma	Km (activation of human protein C) [µM]	kcat (activation of human protein C) [s⁻¹]	kcat/Km (activation of human protein C) [M⁻¹ s⁻¹]
TLCK-inactivated RgpB (protein) YTPVEEKENGRMIVIVAKKYEGDIKDFVDWKNQRGLRTEVKVAEDIASPVTANAIQQFVKQEYEKEGNDLTYVLLVGDHKDIPAKITPGIKSDQVYGQIVGNDHYNEVFIGRFSCESKEDLKTQIDRTIHYERNITTEDKWLGQALCIASAEGGPSADNGESDIQHENVIANLLTQYGYTKIIKCYDPGVTPKNIIDAFNGGISLVNYTGHGSETAWGTSHFGTTHVKQLTNSNQLPFIFDVACVNGDFLFSMPCFAEALMRAQKDGKPTGTVAIIASTIDQYWAPPMRGQDEMNEILCEKHPNNIKRTFGGVTMNGMFAMVEKYKKDGENMLDTWTVFGDPSLLVRTLVPTEMQVTAPANISASAQTFEVACDYNGAIATLSDDGDMVGTAIVKDGKAIIKLNESIADETNLTLTVVGYNKVTVIKDVKVEGTSIADVANDKPYTVAVSGKTITVESPAAGLTIFDMNGRRVATAKNRMVFEAQNGVYAVRIATEGKTYTEKVIVK	TLCK-treated enzymes did not induce PC activation					
RgpB (50 kDa gingipain R, RGP-2) from Porphyromonas gingivalis HG66 (protein) YTPVEEKENGRMIVIVAKKYEGDIKDFVDWKNQRGLRTEVKVAEDIASPVTANAIQQFVKQEYEKEGNDLTYVLLVGDHKDIPAKITPGIKSDQVYGQIVGNDHYNEVFIGRFSCESKEDLKTQIDRTIHYERNITTEDKWLGQALCIASAEGGPSADNGESDIQHENVIANLLTQYGYTKIIKCYDPGVTPKNIIDAFNGGISLVNYTGHGSETAWGTSHFGTTHVKQLTNSNQLPFIFDVACVNGDFLFSMPCFAEALMRAQKDGKPTGTVAIIASTIDQYWAPPMRGQDEMNEILCEKHPNNIKRTFGGVTMNGMFAMVEKYKKDGENMLDTWTVFGDPSLLVRTLVPTEMQVTAPANISASAQTFEVACDYNGAIATLSDDGDMVGTAIVKDGKAIIKLNESIADETNLTLTVVGYNKVTVIKDVKVEGTSIADVANDKPYTVAVSGKTITVESPAAGLTIFDMNGRRVATAKNRMVFEAQNGVYAVRIATEGKTYTEKVIVK		Both proteinases generated APC linearly in a dose- and incubation time-dependent manner	with RgpB negligible APC was detected	3.8	0.015	3900
